Experimental data as given in patent US20230374090A1 (SURROZEN OPERATING, published 2023).

T1: human ASGR1 (human, UniProt P07306 62-291, limits assumed)
T1 construct: also called asialoglycoprotein receptor 1; hASGR1
T1 sequence (looked up): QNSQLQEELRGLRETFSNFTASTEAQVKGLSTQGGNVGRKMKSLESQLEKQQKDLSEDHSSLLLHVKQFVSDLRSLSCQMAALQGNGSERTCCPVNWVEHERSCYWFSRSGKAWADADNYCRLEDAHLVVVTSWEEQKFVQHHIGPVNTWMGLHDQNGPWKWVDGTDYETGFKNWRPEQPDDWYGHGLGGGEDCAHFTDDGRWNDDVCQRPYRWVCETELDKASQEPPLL

T2: HuASGR1-CBD_P07306_154-291 (human)
T2 construct: also called human ASGR1-CBD
T2 chain: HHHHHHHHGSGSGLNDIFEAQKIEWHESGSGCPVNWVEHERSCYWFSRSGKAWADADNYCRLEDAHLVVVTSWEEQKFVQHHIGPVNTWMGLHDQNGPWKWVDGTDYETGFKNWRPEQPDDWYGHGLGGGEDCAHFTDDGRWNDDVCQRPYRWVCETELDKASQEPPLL


Tests used:
human ASGR1 = target: T1, human ASGR1; assay: kinetic binding to human ASGR1, IgG1 format; method and unit inferred
[1] = target: T2, HuASGR1-CBD_P07306_154-291; assay: size-exclusion chromatography of the mixed proteins (1.1:1 molar ratio)
Experimental: Purified […] and 8M24 Fab were mixed at 1.1:1 molar ratio (little excess of the HuASGR1-CBD), and incubated with carboxy-peptidase A and B at a w/w ratio of 100:1 for over-night at 4° C. Complex formation was confirmed by observation of a single-major peak on SuperdexS200 Increase (10/300 GL) column pre-equilibrated in HBS. Fractions containing complexes were further checked by SDS-PAGE and concentrated to ˜20 mg/mL for crystallization screens. […] 96-well plate crystal screening experiments were periodically monitored manually via a DiscoveryV20 stereomicroscope (Zeiss USA), and crystals were frozen for data collection by plunging into liquid nitrogen in the presence of various cryo-protectants (typically 15 to 30% v/v of glycerol or ethyleneglycol). […] Structure of HuASGR1-CBD:8M24 complex was determined by molecular replacement method using Phaser [Phaser crystallographic software. McCoy A J, Grosse-Kunstleve R W, Adams P D, Winn M D, Storoni L C, and Read R J. (2007) J Appl Crystallogr 40, 658-674] with poly-alanine model of published structure of ASGR1-CBD [PDB code: SJPV; Efficient Liver Targeting by Polyvalent Display of a Compact Ligand for the Asialoglycoprotein Receptor. […]

Row | Kd (human ASGR1) [nM] | binding result [1] | Binder
1 | 0.00573 | – | 8M24 humanized L1H1 (antibody, V domains shown, also called 8M24 humanized 1) VH: EVQLVQSGAEVKKPGSSVKVSCKASGYTFTNYGINWVRQAPGQGLEWMGEIFPRSDNTFYAQKFQGRVTITADKSTSTAYMELSSLRSEDTAVYYCARKGRDYGTSHYFDYWGQGTTVTVSS VL: DIQMTQSPSSLSASVGDRVTITCRISENIYSNLAWYQQKPGKAPKLLIYAAINLADGVPSRFSGSGSGTDFTLTISSLQPEDFATYYCQHFWGTPFTFGQGTKLEIK
2 | – | binds | 8M24 Fab (L1H1 version) (Fab, V domains shown, Heavy chain entry includes a C-terminal hexa-histidine tag; also called 8M24L1 Light-chain + 8M24H1 Heavy-chain; SZP19057+19056) VH: EVQLVQSGAEVKKPGSSVKVSCKASGYTFTNYGINWVRQAPGQGLEWMGEIFPRSDNTFYAQKFQGRVTITADKSTSTAYMELSSLRSEDTAVYYCARKGRDYGTSHYFDYWGQGTTVTVSS VL: DIQMTQSPSSLSASVGDRVTITCRISENIYSNLAWYQQKPGKAPKLLIYAAINLADGVPSRFSGSGSGTDFTLTISSLQPEDFATYYCQHFWGTPFTFGQGTKLEIKR
3 | 0.11 | – | 8M24 humanized L2H2 (antibody, V domains shown, also called 8M24 humanized 2) VH: EVQLVQSGAEVKKPGSSVKVSCKASGYTFTNYGINWVRQAPGQGLEWIGEIFPRSDNTFYAQKFQGRATLTADKSTSTAYMELSSLRSEDTAVYYCARKGRDYGTSHYFDYWGQGTTLTVSS VL: DIQMTQSPSSLSASVGDRVTITCRISENIYSNLAWYQQKPGKAPKLLVYAAINLADGVPSRFSGSGSGTDFTLTISSLQPEDFGTYYCQHFWGTPFTFGQGTKLEIK
